From article PMC3798268, “A Minimal Nitrogen Fixation Gene Cluster from Paenibacillus sp. WLY78 Enables Expression of Active Nitrogenase in Escherichia coli”

Tests used:
[1] = target: T1, E. coli sigma70-RNAP holoenzyme (Escherichia coli, UniProt P0A7Z4;P0A8V2;P0A8T7;P0A800;P00579 1-329;1-1342;1-1407;2-91;1-613); experiment: EMSA; reported to bind more tightly than Paenibacillus sigma70; EMSA: Roche DIG Gel Shift Kit, 0.03 pmol labeled DNA, buffer not stated; footprinting: binding 30 min at 25 C, DNase I 40 s at 37 C; conditions: protein: commercial; chain copies: 2;1;1;1;1; label: digoxigenin (DIG Gel Shift Kit); blunt
[2] = target: T1, E. coli sigma70-RNAP holoenzyme; experiment: EMSA; EMSA: Roche DIG Gel Shift Kit, 0.03 pmol labeled DNA, buffer not stated; footprinting: binding 30 min at 25 C, DNase I 40 s at 37 C; conditions: protein: commercial; chain copies: 2;1;1;1;1; blunt

Row | Binder | binding result [1] | binding result [2]
1 | nifB promoter 50 bp (-47 to +3) (dsDNA) DNA 1: GGAGAAGTGAATTGACTGTATTTGTCCCTGTCTCTAAGATGTAATTATAT DNA 2: ATATAATTACATCTTAGAGACAGGGACAAATACAGTCAATTCACTTCTCC | binds | –
2 | scrambled 39 bp DNA (dsDNA) DNA 1: GTACGGAGTATCCAGCTCCGTAGCATGCAAATCCTCTGG DNA 2: CCAGAGGATTTGCATGCTACGGAGCTGGATACTCCGTAC | – | no binding
